Test results published in patent US20170067044A1.

Target: streptavidin (recombinant, with Ni-affinity tag) (UniProt P22629)
Test: PLISA on immobilized streptavidin, binding through biotin

Chain of streptavidin (recombinant, with Ni-affinity tag) (P22629 37-163 limits assumed): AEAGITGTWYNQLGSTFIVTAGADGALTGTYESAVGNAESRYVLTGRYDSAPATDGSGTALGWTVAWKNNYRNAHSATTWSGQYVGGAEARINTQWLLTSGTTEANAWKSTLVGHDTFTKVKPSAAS

## biotinylated form of M13LuxABElink-SompbioVII3 (luciferase-encoding M13 phage exposing a biotinylated BirA-substrate polypeptide as part of capsid protein VII) (from UniProt P69533 1-33)
  smallest amount of streptavidin detected (pg loaded in the well): 1
